What was measured:
[1] = biological target: recombinant nucleoprotein (NP) protein derived from influenza virus H1N1 to which a Flag tag was fus (influenza virus H1N1)
[2] = biological target: intranuclear protein derived from type-A influenza virus H1N1 (A/Puerto Rico/8/34/Mount Sinai) (type-A influenza virus H1N1 (A/Puerto …, UniProt P03466 1-498)); experiment: ELISA, virus solution immobilized on plate, anti-His-HRP detection
[3] = biological target: intranuclear protein derived from type-A influenza virus H11N6 (A/duck/England/1/1956) (type-A influenza virus H11N6 …, UniProt P26062 1-498); experiment: as above
Chain of intranuclear protein derived from type-A influenza virus H11N6 (A/duck/England/1/1956) (P26062 whole entry): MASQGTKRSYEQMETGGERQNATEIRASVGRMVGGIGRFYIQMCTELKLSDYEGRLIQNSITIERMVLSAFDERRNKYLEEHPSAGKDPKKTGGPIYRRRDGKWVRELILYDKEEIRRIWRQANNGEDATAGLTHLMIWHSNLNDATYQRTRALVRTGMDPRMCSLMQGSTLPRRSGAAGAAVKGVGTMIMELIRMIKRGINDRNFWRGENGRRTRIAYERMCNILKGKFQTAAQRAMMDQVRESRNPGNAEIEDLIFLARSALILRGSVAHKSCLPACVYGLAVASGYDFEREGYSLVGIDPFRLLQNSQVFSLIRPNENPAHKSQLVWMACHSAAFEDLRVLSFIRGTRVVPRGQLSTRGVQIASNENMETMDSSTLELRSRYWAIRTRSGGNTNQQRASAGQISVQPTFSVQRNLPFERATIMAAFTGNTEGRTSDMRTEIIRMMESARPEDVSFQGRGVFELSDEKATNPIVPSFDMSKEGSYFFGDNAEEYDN

[4] = biological target: intranuclear protein derived from type-A influenza virus H7N7 (A/seal/Massachusetts/1/1980) (type-A influenza virus H7N7 …, UniProt P26053 1-498); experiment: as above
Chain of intranuclear protein derived from type-A influenza virus H7N7 (A/seal/Massachusetts/1/1980) (P26053 whole entry): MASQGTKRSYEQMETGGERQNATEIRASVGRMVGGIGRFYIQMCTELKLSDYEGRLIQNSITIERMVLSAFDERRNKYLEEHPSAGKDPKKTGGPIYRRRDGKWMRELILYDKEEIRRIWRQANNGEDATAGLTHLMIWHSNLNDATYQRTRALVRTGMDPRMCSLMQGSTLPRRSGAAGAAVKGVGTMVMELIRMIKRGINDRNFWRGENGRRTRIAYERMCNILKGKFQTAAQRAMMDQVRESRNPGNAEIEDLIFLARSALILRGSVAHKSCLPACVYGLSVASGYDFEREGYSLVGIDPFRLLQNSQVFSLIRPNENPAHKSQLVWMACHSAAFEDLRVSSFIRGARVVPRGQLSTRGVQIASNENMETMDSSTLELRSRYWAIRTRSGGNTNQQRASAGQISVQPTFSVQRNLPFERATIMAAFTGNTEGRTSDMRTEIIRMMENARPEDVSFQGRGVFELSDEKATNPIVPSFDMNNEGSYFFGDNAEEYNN

[5] = biological target: recombinant intranuclear protein (SEQ ID NO: 24) derived from a type-A influenza virus H1N1 (A/Puert (type-A influenza virus H1N1 (A/Puerto …, UniProt P03466 1-498))); experiment: phage ELISA on immobilized NP, anti-M13 detection, absorbance at 450 nm
Chain of recombinant intranuclear protein (SEQ ID NO: 24) derived from a type-A influenza virus H1N1 (A/Puert (type-A influenza virus H1N1 (P03466 whole entry): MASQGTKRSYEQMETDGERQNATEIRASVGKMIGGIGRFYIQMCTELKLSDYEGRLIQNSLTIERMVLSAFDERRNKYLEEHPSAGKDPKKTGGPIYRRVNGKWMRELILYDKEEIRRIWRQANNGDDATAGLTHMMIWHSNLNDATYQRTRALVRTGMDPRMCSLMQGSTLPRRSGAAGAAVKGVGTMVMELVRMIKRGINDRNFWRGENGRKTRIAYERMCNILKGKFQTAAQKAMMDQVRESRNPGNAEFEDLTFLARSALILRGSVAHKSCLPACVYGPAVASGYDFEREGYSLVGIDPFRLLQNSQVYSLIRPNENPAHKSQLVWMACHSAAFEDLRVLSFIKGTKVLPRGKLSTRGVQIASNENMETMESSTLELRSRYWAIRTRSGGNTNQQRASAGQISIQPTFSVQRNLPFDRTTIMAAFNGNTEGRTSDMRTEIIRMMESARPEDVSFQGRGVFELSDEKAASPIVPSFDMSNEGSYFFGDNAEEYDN

Chain of intranuclear protein derived from type-A influenza virus H1N1 (A/Puerto Rico/8/34/Mount Sinai) (type-A influenza virus H1N1 (P03466 whole entry): as above
Chain of recombinant nucleoprotein (NP) protein derived from influenza virus H1N1 to which a Flag tag was fus (influenza virus H1N1) (P03466 whole entry): as above

B1: VHH antibody consisting of the amino acid sequence represented by SEQ ID NO: 8 (VHH)
VHH: QVQLVESGGGLVQAGGSLRLSCIASGSIFSPNVMGWYRQAPGKPRELVAAITLGESTNYADSVKGRFTISRSNAENTVYLQMDSLKPEDTAVYYCNAGPILERVGPYWGQGTQVTVSS
- Kd [1]: 0.826 nM
- binding result [2]: binds
- binding result [3]: binds
- binding result [4]: binds

B2: phage-displayed VHH antibody (protein synthesized from the DNA sequence represented by SEQ ID NO: 18, i.e. SEQ ID NO: 8) (VHH)
VHH: QVQLVESGGGLVQAGGSLRLSCIASGSIFSPNVMGWYRQAPGKPRELVAAITLGESTNYADSVKGRFTISRSNAENTVYLQMDSLKPEDTAVYYCNAGPILERVGPYWGQGTQVTVSS
- binding result [5]: binds

— patent publication US20200025759A1 (PANASONIC INTELLECTURAL PROPERTY MANAGEMENT, published 2020)
